Target: T1, B/Vic-I53_dn5 nanoparticle (Influenza B virus B/Brisbane/60/2008 …, strain)
T1 chain: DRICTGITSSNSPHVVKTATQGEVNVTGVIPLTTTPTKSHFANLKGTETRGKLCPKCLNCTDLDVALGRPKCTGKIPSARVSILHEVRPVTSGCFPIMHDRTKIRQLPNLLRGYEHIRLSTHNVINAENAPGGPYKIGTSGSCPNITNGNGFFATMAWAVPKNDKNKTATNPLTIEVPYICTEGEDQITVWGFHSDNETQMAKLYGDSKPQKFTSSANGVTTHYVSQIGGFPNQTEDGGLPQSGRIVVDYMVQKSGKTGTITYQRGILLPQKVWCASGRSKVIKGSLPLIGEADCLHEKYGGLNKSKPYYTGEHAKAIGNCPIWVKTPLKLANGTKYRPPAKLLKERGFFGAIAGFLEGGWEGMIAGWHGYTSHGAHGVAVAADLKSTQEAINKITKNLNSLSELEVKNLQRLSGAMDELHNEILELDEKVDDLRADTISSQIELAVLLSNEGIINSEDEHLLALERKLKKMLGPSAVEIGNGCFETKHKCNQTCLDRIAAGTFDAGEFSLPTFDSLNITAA
Experiment: ELISA

B1: CR8071 (antibody, V domains shown)
VH: QVQLVQSGAEVKKPGASVRVSCRASGYIFTESGITWVRQAPGQGLEWMGWISGYSGDTKYAQKLQGRVTMTKDTSTTTAYMELRSLRYDDTAVYYCARDVQYSGSYLGAYYFDYWSPGTLVTVSS
VL: QSVLTQPPSASGTPGQRVTISCSGSSSNIGTNYVYWYQQFPGTAPKLLIYRSYQRPSGVPDRFSGSKSGSSASLAISGLQSEDEADYYCATWDDSLDGWVFGGGTKLTVL
- binding result: binds
